Measurements reported in US20210388087A1 (Chugai, published 2021).
Where a chain is given by its changes, count along the chain named.

B1: H183/L072 VL N28Y (antibody, name in Kabat numbering, V domains shown)
VH: QVQLVESGGGLVQPGRSLRLSCAASGFTFSNAWMHWVRQAPGKGLEWVAQIKDKGNAYAAYYAPSVKGRFTISRDDSKNSIYLQMNSLKTEDTAVYYCHYVHYASASTVLPAFGVDAWGQGTTVTVSS
VL: DIVMTQSPLSLPVTPGEPASISCQASQELVHMYRNTYLHWYQQKPGQAPRLLIYKVSNRFPGVPDRFSGSGSGTDFTLKISRVEAEDVGVYYCAQGTSVPFTFGQGTKLEIK
notes: Dual-Ig
B2: H183/L072 VL P56G (antibody, name in Kabat numbering, V domains shown)
VH: B1 VH
VL: B1 VL with Y33N, P61G
notes: Dual-Ig
B3: H183/L072 VL N53I (antibody, name in Kabat numbering, V domains shown)
VH: B1 VH
VL: B1 VL with Y33N, N58I
notes: Dual-Ig
B4: H183/L072 VL N53H (antibody, name in Kabat numbering, V domains shown)
VH: B1 VH
VL: B1 VL with Y33N, N58H
notes: Dual-Ig
B5: H183/L072 VL N30Y (antibody, name in Kabat numbering, V domains shown)
VH: B1 VH
VL: B1 VL with Y33N, N35Y
notes: Dual-Ig
B6: H183/L072 VL N53S (antibody, name in Kabat numbering, V domains shown)
VH: B1 VH
VL: B1 VL with Y33N, N58S
notes: Dual-Ig
B7: H183/L072 VL N30I (antibody, name in Kabat numbering, V domains shown)
VH: B1 VH
VL: B1 VL with Y33N, N35I
notes: Dual-Ig
B8: H183/L072 VL N30E (antibody, name in Kabat numbering, V domains shown)
VH: B1 VH
VL: B1 VL with Y33N, N35E
notes: Dual-Ig
B9: H183/L072 VL P56I (antibody, name in Kabat numbering, V domains shown)
VH: B1 VH
VL: B1 VL with Y33N, P61I
notes: Dual-Ig
B10: H183/L072 VL N30A (antibody, name in Kabat numbering, V domains shown)
VH: B1 VH
VL: B1 VL with Y33N, N35A
notes: Dual-Ig
B11: H183/L072 VL N30M (antibody, name in Kabat numbering, V domains shown)
VH: B1 VH
VL: B1 VL with Y33N, N35M
notes: Dual-Ig
B12: H183/L072 VL N30K (antibody, name in Kabat numbering, V domains shown)
VH: B1 VH
VL: B1 VL with Y33N, N35K
notes: Dual-Ig
B13: H183/L072 VL N53E (antibody, name in Kabat numbering, V domains shown)
VH: B1 VH
VL: B1 VL with Y33N, N58E
notes: Dual-Ig
B14: H183/L072 VL N53M (antibody, name in Kabat numbering, V domains shown)
VH: B1 VH
VL: B1 VL with Y33N, N58M
notes: Dual-Ig
B15: H183/L072 VL N53L (antibody, name in Kabat numbering, V domains shown)
VH: B1 VH
VL: B1 VL with Y33N, N58L
notes: Dual-Ig
B16: H183/L072 VL P56L (antibody, name in Kabat numbering, V domains shown)
VH: B1 VH
VL: B1 VL with Y33N, P61L
notes: Dual-Ig
B17: H183/L072 VL N53K (antibody, name in Kabat numbering, V domains shown)
VH: B1 VH
VL: B1 VL with Y33N, N58K
notes: Dual-Ig
B18: H183/L072 VL N53R (antibody, name in Kabat numbering, V domains shown)
VH: B1 VH
VL: B1 VL with Y33N, N58R
notes: Dual-Ig
B19: H183/L072 VL N53W (antibody, name in Kabat numbering, V domains shown)
VH: B1 VH
VL: B1 VL with Y33N, N58W
notes: Dual-Ig
B20: H183/L072 VL P56A (antibody, name in Kabat numbering, V domains shown)
VH: B1 VH
VL: B1 VL with Y33N, P61A
notes: Dual-Ig
B21: H183/L072 VL N53D (antibody, name in Kabat numbering, V domains shown)
VH: B1 VH
VL: B1 VL with Y33N, N58D
notes: Dual-Ig
B22: H183/L072 VL N53A (antibody, name in Kabat numbering, V domains shown)
VH: B1 VH
VL: B1 VL with Y33N, N58A
notes: Dual-Ig
B23: H183/L072 VL N30R (antibody, name in Kabat numbering, V domains shown)
VH: B1 VH
VL: B1 VL with Y33N, N35R
notes: Dual-Ig
B24: H183/L072 VL P56D (antibody, name in Kabat numbering, V domains shown)
VH: B1 VH
VL: B1 VL with Y33N, P61D
notes: Dual-Ig
B25: H183/L072 VL N53Q (antibody, name in Kabat numbering, V domains shown)
VH: B1 VH
VL: B1 VL with Y33N, N58Q
notes: Dual-Ig
B26: H183/L072 VL N30S (antibody, name in Kabat numbering, V domains shown)
VH: B1 VH
VL: B1 VL with Y33N, N35S
notes: Dual-Ig
B27: H183/L072 VL N53F (antibody, name in Kabat numbering, V domains shown)
VH: B1 VH
VL: B1 VL with Y33N, N58F
notes: Dual-Ig
B28: H183/L072 VL P56M (antibody, name in Kabat numbering, V domains shown)
VH: B1 VH
VL: B1 VL with Y33N, P61M
notes: Dual-Ig
B29: H183/L072 VL P56E (antibody, name in Kabat numbering, V domains shown)
VH: B1 VH
VL: B1 VL with Y33N, P61E
notes: Dual-Ig
B30: H183/L072 VL P56H (antibody, name in Kabat numbering, V domains shown)
VH: B1 VH
VL: B1 VL with Y33N, P61H
notes: Dual-Ig
B31: H183/L072 VL N30G (antibody, name in Kabat numbering, V domains shown)
VH: B1 VH
VL: B1 VL with Y33N, N35G
notes: Dual-Ig
B32: H183/L072 VL N53T (antibody, name in Kabat numbering, V domains shown)
VH: B1 VH
VL: B1 VL with Y33N, N58T
notes: Dual-Ig
B33: H183/L072 VL N30H (antibody, name in Kabat numbering, V domains shown)
VH: B1 VH
VL: B1 VL with Y33N, N35H
notes: Dual-Ig
B34: H183/L072 VL N30W (antibody, name in Kabat numbering, V domains shown)
VH: B1 VH
VL: B1 VL with Y33N, N35W
notes: Dual-Ig
B35: H183/L072 VL N53P (antibody, name in Kabat numbering, V domains shown)
VH: B1 VH
VL: B1 VL with Y33N, N58P
notes: Dual-Ig
B36: H183/L072 VL P56F (antibody, name in Kabat numbering, V domains shown)
VH: B1 VH
VL: B1 VL with Y33N, P61F
notes: Dual-Ig
B37: H183/L072 VL N30L (antibody, name in Kabat numbering, V domains shown)
VH: B1 VH
VL: B1 VL with Y33N, N35L
notes: Dual-Ig
B38: H183/L072 VL P56K (antibody, name in Kabat numbering, V domains shown)
VH: B1 VH
VL: B1 VL with Y33N, P61K
notes: Dual-Ig
B39: H183/L072 VL N30Q (antibody, name in Kabat numbering, V domains shown)
VH: B1 VH
VL: B1 VL with Y33N, N35Q
notes: Dual-Ig
B40: H183/L072 VL N53V (antibody, name in Kabat numbering, V domains shown)
VH: B1 VH
VL: B1 VL with Y33N, N58V
notes: Dual-Ig
B41: H183/L072 VL N30D (antibody, name in Kabat numbering, V domains shown)
VH: B1 VH
VL: B1 VL with Y33N, N35D
notes: Dual-Ig
B42: H183/L072 VL N53G (antibody, name in Kabat numbering, V domains shown)
VH: B1 VH
VL: B1 VL with Y33N, N58G
notes: Dual-Ig
B43: H183/L072 VL N30V (antibody, name in Kabat numbering, V domains shown)
VH: B1 VH
VL: B1 VL with Y33N, N35V
notes: Dual-Ig
B44: H183/L072 VL N30P (antibody, name in Kabat numbering, V domains shown)
VH: B1 VH
VL: B1 VL with Y33N, N35P
notes: Dual-Ig
B45: H183/L072 VL N30F (antibody, name in Kabat numbering, V domains shown)
VH: B1 VH
VL: B1 VL with Y33N, N35F
notes: Dual-Ig
B46: H183/L072 VL N30T (antibody, name in Kabat numbering, V domains shown)
VH: B1 VH
VL: B1 VL with Y33N, N35T
notes: Dual-Ig

Each binder was assayed against T1, Human CD137 ECD (human) (assay: Biacore SPR, vs parent H183/L072).
T1 construct: entry includes C-terminal His-tag and biotin acceptor peptide; also called human CD137 extracellular domain; 4-1BB
T1 sequence (chain, as listed by the source limits assumed): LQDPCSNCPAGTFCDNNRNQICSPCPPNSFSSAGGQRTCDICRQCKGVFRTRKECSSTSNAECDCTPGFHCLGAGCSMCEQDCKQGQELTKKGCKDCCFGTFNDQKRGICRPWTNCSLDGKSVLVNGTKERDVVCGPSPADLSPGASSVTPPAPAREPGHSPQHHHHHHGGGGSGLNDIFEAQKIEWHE

| Binder | fold change of affinity |
| --- | --- |
| B1 | 0.4 fold |
| B2 | 0.1 fold |
| B3 | 0.2 fold |
| B4 | 0.5 fold |
| B5 | 0.6 fold |
| B6 | 0.5 fold |
| B7 | 0.3 fold |
| B8 | 0.1 fold |
| B9 | 0.1 fold |
| B10 | 0.7 fold |
| B11 | 1.8 fold |
| B12 | 0.6 fold |
| B13 | 0.2 fold |
| B14 | 0.1 fold |
| B15 | 0.2 fold |
| B16 | 0.1 fold |
| B17 | 0.2 fold |
| B18 | 0.3 fold |
| B19 | 0 fold |
| B20 | 0.1 fold |
| B21 | 0.3 fold |
| B22 | 0.7 fold |
| B23 | 0.5 fold |

| Binder | fold change of affinity |
| --- | --- |
| B24 | 0.2 fold |
| B25 | 0.4 fold |
| B26 | 0.2 fold |
| B27 | 0.3 fold |
| B28 | 0.2 fold |
| B29 | 0.1 fold |
| B30 | 0 fold |
| B31 | 0.9 fold |
| B32 | 0 fold |
| B33 | 1 fold |
| B34 | 0.9 fold |
| B35 | 0 fold |
| B36 | 0 fold |
| B37 | 0.3 fold |
| B38 | 0 fold |
| B39 | 1 fold |
| B40 | 0.5 fold |
| B41 | 0.1 fold |
| B42 | 0.6 fold |
| B43 | 0.7 fold |
| B44 | 0.4 fold |
| B45 | 0.9 fold |
| B46 | 0.3 fold |
